Laboratory results reported in patent publication US20110046070A1, “GENE EXPRESSION INHIBITOR SELECTIVE FOR MATRIX METALLOPROTEINASE-9 GENE” (priority 2008, published 2011).

Assay: Tissue distribution of fluorescently labeled polyamide
Type: in vivo
Details: 7.5 mg/kg tail vein, mice
Procedure: On day 1 (24 hours), day 6 and day 21 after the intravenous injection, the mice were dissected, and each tissue of the livers, the spleens and the kidneys was collected and prepared into frozen sections, which were then fixed in 4% paraformaldehyde for 30 minutes.

For `CN(C)CCCNC(=O)CCNC(=O)c1cc(NC(=O)c2cc(NC(=O)CCNC(=O)c3nc(NC(=O)c4nc(NC(=O)CCCNC(=O)c5cc(NC(=O)c6cc(NC(=O)CCNC(=O)c7cc(NC(=O)c8cc(NC(=O)CCNC(=S)Nc9ccc(-c%10c%11ccc(=O)cc-%11oc%11cc(O)ccc%10%11)c(C(=O)O)c9)cn8C)cn7C)cn6C)cn5C)cn4C)cn3C)cn2C)cn1C` [HMMP9NFκβ-FITC], the “incorporation in the nuclei of liver and kidney cells” value (after 1 day) was “A large number”, the “incorporation in the nuclei of spleen cells” value (after 1 day) was “also incorporated in the nuclei of spleen cells” and the “FITC fluorescence in tissue” value (after 6 days) was “strong FITC fluorescence was observed”. The “FITC fluorescence intensity in the cells of each tissue” value (after 21 days) was “remarkably attenuated”.
